Data: US20230151437A1 (Harvard, published 2023)

B1: iPAK4 (fusion of the catalytic domain of the Pak4 kinase and the 38 amino acid iBox domain of its inhibitor Inka1) (other)
chain: MDYKDDDDKSGSEAEDWTAALLNRGRSRQPLVLGDNCFADLVHNWMELPEEFPAAPAVPGPPGPRSPQREPQRVSHEQFRAALQLVVDPGDPRSYLDNFIKIGEGSTGIVCIATVRSSGKLVAVKKMDLRKQQRRELLFNEVVIMRDYQHENVVEMYNSYLVGDELWVVMEFLEGGALTDIVTHTRMNEEQIAAVCLAVLQALSVLHAQGVIHRDIKSDSILLTHDGRVKLSDFGFCAQVSKEVPRRKSLVGTPYWMAPELISRLPYGPEVDIWSLGIMVIEMVDGEPPYFNEPPLKAMKMIRDNLPPRLKNLHKVSPSLKGFLDRLLVRDPAQRATAAELLKHPFLAKAGPPASIVPLMRQNRTR
notes: also called ibox-PAK4cat; CMV::iPAK4

Tests used:
[1] = target: B1; experiment: co-expression in HEK cells; fluorescence imaging of HT-iPAK4 incorporated into iPAK4 assemblies
Method: To assess the suitability of iPAK4 assemblies as a recording medium, a detailed characterization of their nucleation and growth was performed. CMV::iPAK4 (90%), CMV::eGFP-iPAK4 (5%), and CMV::HT-iPAK4 (5%) were co-expressed in HEK cells using lentiviral transduction, and JF₆₆₉ was added to the medium to label the HT. Time-lapse video microscopy was recorded over a 13 hour interval starting 1 hour after transfection, and over 43 hours starting 20 hours after transfection. The fluorescence of the cytoplasm and the growth of individual assemblies was then tracked. Initially, green (eGFP) and red (HT-JF₆₆₉) fluorescence accumulated in the cytoplasm. Upon nucleation, assemblies grew quickly (˜0.5 μm/min) at first, while the cytoplasmic fluorescence dropped. This phase typically lasted approximately 1 h. The assemblies then transitioned to slower linear growth (FIG. 1E). […] A simple mass-action kinetic model predicted the two-phase growth profiles and quantitatively reproduced the observed growth profiles (Calculation 1, FIGS. 7A-7E).

[2] = target: the molecule itself; experiment: time-lapse fluorescence microscopy of intracellular self-assembly in cultured rat hippocampal neurons

binding result [1] | Binder | binding result [2]
binds | HaloTag-iPAK4 (other, also called HT-iPAK4; CMV::HT-iPAK4) MIGTGFPFDPHYVEVLGERMHYVDVGPRDGTPVLFLHGNPTSSYVWRNIIPHVAPTHRCIAPDLIGMGKSDKPDLGYFFDDHVRFMDAFIEALGLEEVVLVIHDWGSALGFHWAKRNPERVKGIAFMEFIRPIPTWDEWPEFARETFQAFRTTDVGRKLIIDQNVFIEGTLPMGVVRPLTEVEMDHYREPFLNPVDREPLWRFPNELPIAGEPANIVALVEEYMDWLHQSPVPKLLFWGTPGVLIPPAEAARLAKSLPNCKAVDIGPGLNLLQEDNPDLIGSEIARWLSTLEISGEPTTSGSEAEDWTAALLNRGRSRQPLVLGDNCFADLVHNWMELPEEFPAAPAVPGPPGPRSPQREPQRVSHEQFRAALQLVVDPGDPRSYLDNFIKIGEGSTGIVCIATVRSSGKLVAVKKMDLRKQQRRELLFNEVVIMRDYQHENVVEMYNSYLVGDELWVVMEFLEGGALTDIVTHTRMNEEQIAAVCLAVLQALSVLHAQGVIHRDIKSDSILLTHDGRVKLSDFGFCAQVSKEVPRRKSLVGTPYWMAPELISRLPYGPEVDIWSLGIMVIEMVDGEPPYFNEPPLKAMKMIRDNLPPRLKNLHKVSPSLKGFLDRLLVRDPAQRATAAELLKHPFLAKAGPPASIVPLMRQNRTR | 
 | B1 | binds
